Measurements as given in US20120053121A1.

Biological target: EGF receptor (EGFR) on PC12 cells
Test: cell-based or functional assay

Question: “GMP-grade human mature HB-EGF produced in P. pastoris yeast (from UniProt Q99075 63-148) (ligand)” was tested. Which percentage of PC12 cells with neurite outgrowth after 3 days, HB-EGF treated did it give?
Answer: 87.8%

Question: What about the rate of neurite extension induced by HB-EGF in PC12 cells in the presence of AG1478 (EGF receptor kinase inhibitor) of the same substance?
Answer: 24.3%
